# B1: Antibody 58 (antibody, human IgG1, kappa, V domains shown)
# VH: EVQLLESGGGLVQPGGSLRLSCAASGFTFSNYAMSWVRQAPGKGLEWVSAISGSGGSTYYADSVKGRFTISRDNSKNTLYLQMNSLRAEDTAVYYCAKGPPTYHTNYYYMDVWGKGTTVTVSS
# VL: DIQMTQSPSSVSASVGDRVTITCRASQGISSWLAWYQQKPGKAPKLLIYAASSLQSGVPSRFSGSGSGTDFTLTISSLQPEDFATYYCQQTNSFPYTFGGGTKVEIKR
# notes: also called Ab58; HC-58/LC-58
# B2: Antibody 61 (antibody, human IgG1, kappa, V domains shown)
# VH: EVQLLESGGGLVQPGGSLRLSCAASGFTFSSYVMIWVRQAPGKGLEWVSSISGDSVTTYYADSVKGRFTISRDNSKNTLYLQMNSLRAEDTAVYYCAKGPPTYHTNYYYMDVWGKGTTVTVSS
# VL: DIQMTQSPSSVSASVGDRVTITCRASQGISSWLAWYQQKPGKAPKLLIYAASSLQSGVPSRFSGSGSGTDFTLTISSLQPEDFATYYCQQTNSFPYTFGGGTKVEIKR
# notes: also called Ab61; HC-61/LC-61
# B3: Antibody 56 (antibody, human IgG1, kappa, V domains shown)
# VH: QVQLVQSGAEVKKPGSSVKVSCKASGGTFSLYAISWVRQAPGQGLEWMGGIIPAFGTANYAQKFQGRVTITADESTSTAYMELSSLRSEDTAVYYCARGGLDTDEFDLWGRGTLVTVSS
# VL: DIQMTQSPSSLSASVGDRVTITCRASQSINSYLNWYQQKPGKAPKLLIYAASSLQSGVPSRFSGSGSGTDFTLTISSLQPEDFATYYCQQGVSDITFGGGTKVEIKR
# notes: also called Ab56; HC-56/LC-56
# B4: Antibody 57 (antibody, human IgG1, kappa, V domains shown)
# VH: QVQLVQSGAEVKKPGSSVKVSCKASGGTFSLYAISWVRQAPGQGLEWMGGIIPHFGLANYAQKFQGRVTITADESTSTAYMELSSLRSEDTAVYYCARGGLDTDEFDLWGRGTLVTVSS
# VL: DIQMTQSPSSLSASVGDRVTITCRASQSINSYLNWYQQKPGKAPKLLIYAASSLQSGVPSRFSGSGSGTDFTLTISSLQPEDFATYYCQQGVSDITFGGGTKVEIKR
# notes: also called Ab57; HC-57/LC-57
# B5: Antibody 55 (antibody, human IgG1, kappa, V domains shown)
# VH: QVQLVQSGAEVKKPGSSVKVSCKASGGTFRIYAISWVRQAPGQGLEWMGGIIPDFGVANYAQKFQGRVTITADESTSTAYMELSSLRSEDTAVYYCARGGLDTDEFDLWGRGTLVTVSS
# VL: DIQMTQSPSSLSASVGDRVTITCRASQSINSYLNWYQQKPGKAPKLLIYAASSLQSGVPSRFSGSGSGTDFTLTISSLQPEDFATYYCQQGVSDITFGGGTKVEIKR
# notes: also called Ab55; HC-55/LC-55
# B6: Antibody 54 (antibody, human IgG1, kappa, V domains shown)
# VH: QVQLVQSGAEVKKPGSSVKVSCKASGGTFSSYAISWVRQAPGQGLEWMGGIIPIFGTANYAQKFQGRVTITADESTSTAYMELSSLRSEDTAVYYCARGGLDTDEFDLWGRGTLVTVSS
# VL: DIQMTQSPSSLSASVGDRVTITCRASQSINSYLNWYQQKPGKAPKLLIYAASSLQSGVPSRFSGSGSGTDFTLTISSLQPEDFATYYCQQGVSDITFGGGTKVEIKR
# notes: also called Ab54; HC-54/LC-54
# B7: Antibody 67 (antibody, human IgG1, kappa, V domains shown)
# VH: EVQLVESGGGLVQPGGSLRLSCAASGFTFSDADMDWVRQAPGKGLEWVGRTRNKAGSYTTEYAASVKGRFTISRDDSKNSLYLQMNSLKTEDTAVYYCAREPKYWIDFDLWGRGTLVTVSS
# VL: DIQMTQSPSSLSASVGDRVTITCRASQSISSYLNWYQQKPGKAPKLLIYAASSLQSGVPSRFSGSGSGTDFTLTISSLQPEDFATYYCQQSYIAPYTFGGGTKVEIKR
# notes: also called Ab67; HC-67/LC-67
# B8: Antibody 69 (antibody, human IgG1, kappa, V domains shown)
# VH: EVQLVESGGGLVQPGGSLRLSCAASGFTFVDHDMDWVRQAPGKGLEWVGRTRNKLGSYTTEYAASVKGRFTISRDDSKNSLYLQMNSLKTEDTAVYYCAREPKYWIDFDLWGRGTLVTVSS
# VL: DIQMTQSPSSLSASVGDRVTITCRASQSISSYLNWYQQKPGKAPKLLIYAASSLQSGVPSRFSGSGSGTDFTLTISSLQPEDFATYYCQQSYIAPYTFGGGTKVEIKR
# notes: also called Ab69; HC-69/LC-69
# B9: Antibody 68 (antibody, human IgG1, kappa, V domains shown)
# VH: EVQLVESGGGLVQPGRSLRLSCTASGFTFSDHDMNWVRQAPGKGLEWVGRTRNAAGSYTTEYAASVKGRFTISRDDSKNSLYLQMNSLKTEDTAVYYCAREPKYWIDFDLWGRGTLVTVSS
# VL: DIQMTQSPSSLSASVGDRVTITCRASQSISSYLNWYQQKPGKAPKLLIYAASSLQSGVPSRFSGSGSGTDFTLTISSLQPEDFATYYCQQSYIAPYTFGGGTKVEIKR
# notes: also called Ab68; HC-68/LC-68
# B10: Antibody 66 (antibody, human IgG1, kappa, V domains shown)
# VH: EVQLVESGGGLVQPGGSLRLSCAASGFTFSDHYMDWVRQAPGKGLEWVGRTRNKASSYTTEYAASVKGRFTISRDDSKNSLYLQMNSLKTEDTAVYYCAREPKYWIDFDLWGRGTLVTVSS
# VL: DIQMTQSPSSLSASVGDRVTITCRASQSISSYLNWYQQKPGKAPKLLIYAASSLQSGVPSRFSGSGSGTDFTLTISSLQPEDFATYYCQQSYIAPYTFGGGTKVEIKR
# notes: also called Ab66; HC-66/LC-66
# Molecular target: T1, rhesus CD117 ectodomain (rhesus, UniProt F6V858 26-524)
# T1 construct: extracellular domain
# Experiment: BLI (Octet Red96), IgG on anti-human Fc sensors, rhesus CD117 ectodomain at 33.3 and 11 nM, 1:1 fit
# Description: Antibody binding studies were performed at 25 degrees celsius in 1×PBS supplemented with 0.1% w/v bovine serum albumin with a Pall ForteBio Octet Red96 using biolayer interferometry (BLI).
Binder,Kd,koff,kon
B1,30.3 nM,0.00855 s⁻¹,282000 M⁻¹ s⁻¹
B2,20.5 nM,0.00472 s⁻¹,230000 M⁻¹ s⁻¹
B3,0.28 nM,8.57e-05 s⁻¹,306000 M⁻¹ s⁻¹
B4,0.288 nM,8.57e-05 s⁻¹,298000 M⁻¹ s⁻¹
B5,0.284 nM,8.96e-05 s⁻¹,315000 M⁻¹ s⁻¹
B6,2.6 nM,0.000793 s⁻¹,304000 M⁻¹ s⁻¹
B7,0.376 nM,8.57e-05 s⁻¹,228000 M⁻¹ s⁻¹
B8,0.528 nM,0.000126 s⁻¹,240000 M⁻¹ s⁻¹
B9,0.374 nM,8.98e-05 s⁻¹,240000 M⁻¹ s⁻¹
B10,66 nM,0.0258 s⁻¹,391000 M⁻¹ s⁻¹

# Source: patent US20190144558A1 (MAGENTA THERAPEUTICS, published 2019)
